Measured values as given in patent US9790262B2, “Compositions comprising glucagon analogs and methods of making and using the same” (LONGEVITY BIOTECH, INC., priority 2011, dated 2017).
Non-standard residues stand in square brackets, D forms with d. No end group written: not given here. APC = 3-aminopyrrolidine-4-carboxylic acid (cyclic beta amino acid); ACPC = 2-aminocyclopentanecarboxylic acid (cyclic beta amino acid); Aib = CC(C)(N)C(=O)O

B1: 2004 (peptide)
peptide: YXEGTFTSDYSXYLXKQAXXEXVNWXLAX
modifications: B = alpha-aminoisobutyric acid (Aib) at positions 2 and 20; alpha-to-beta3 amino acid replacement(s) at the bold and underlined position(s) of the printed sequence, which this text does not show
B2: 2005 (peptide)
peptide: YXEGTFTSDYSIYXDKXAAXXFVXWLLXG
modifications: B = alpha-aminoisobutyric acid (Aib) at positions 2 and 20; alpha-to-beta3 amino acid replacement(s) at the bold and underlined position(s) of the printed sequence, which this text does not show
B3: 2001 (peptide)
peptide: YXEGTFTSDYSXYLDXQAXXEFXNWXLAG
modifications: B = alpha-aminoisobutyric acid (Aib) at positions 2 and 20; alpha-to-beta3 amino acid replacement(s) at the bold and underlined position(s) of the printed sequence, which this text does not show

Experiments:
GIP receptor (GIPR) = molecular target: T1, GIP receptor (GIPR) (Homo sapiens, UniProt P48546); assay: cAMP Hunter agonist assay (DiscoveRx HitHunter cAMP XS+), GIPR cells; assay type: cell-based; settings: read-out: Max Response
T1 sequence (P48546 22-466): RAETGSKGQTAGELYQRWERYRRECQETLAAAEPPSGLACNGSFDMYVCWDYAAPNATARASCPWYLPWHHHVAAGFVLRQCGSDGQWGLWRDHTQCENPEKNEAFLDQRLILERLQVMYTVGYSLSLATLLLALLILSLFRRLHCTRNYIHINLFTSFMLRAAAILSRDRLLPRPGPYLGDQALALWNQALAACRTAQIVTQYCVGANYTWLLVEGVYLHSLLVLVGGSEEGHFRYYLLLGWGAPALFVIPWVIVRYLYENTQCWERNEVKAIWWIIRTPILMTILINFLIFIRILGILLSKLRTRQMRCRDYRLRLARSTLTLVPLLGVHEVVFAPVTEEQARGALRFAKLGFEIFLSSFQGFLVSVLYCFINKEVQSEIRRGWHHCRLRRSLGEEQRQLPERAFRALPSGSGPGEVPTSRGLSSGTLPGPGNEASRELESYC
Protocol: Once it was established that the cells were healthy and growing normally, cells were passaged from flasks using cell dissociation reagent buffer and seeded into white walled clear bottom 384-well microplates for compound profiling. For profiling, cells were seeded at a density of 10,000 cells per well in a total volume of 20 μL and were allowed to adhere and recover overnight prior to compound addition. cAMP modulation was determined using the DiscoveRx HitHunter cAMP XS+ assay.
For profiling compound in agonist mode, the cells were incubated in the presence of compound at 37° C. for 30 minutes. […] After appropriate compound incubation, assay signal was generated through incubation with DiscoverX lysis cocktail according to the manufacturers standard protocol. Dose curves were plotted using GraphPad Prism or Activity Base. Percentage activity is calculated using the following formula: % Activity=100%×(mean RLU of test sample−mean RLU of vehicle control)/(mean RLU of MAX control−mean RLU of vehicle control).

[1] = Stability in human liver microsomes; settings: for % of mass remaining in solution: 0.5 mg/mL human liver microsomes, 1 μM, 1 mM NADPH, 37° C.
Protocol: Human liver microsomes were prepared by Absorption Systems. A reaction mixture, minus NADPH, was prepared as described below. […] In parallel, a […]. The test compound was added into the reaction mixture (0.5 mg/mL human liver microsomes; 100 mM potassium phosphate; 5 mM Magnesium chloride) at a final concentration of 1 μM. An aliquot of the reaction mixture (without cofactor) was incubated in a shaking water bath at 37° C. for 3 minutes. […] The samples were then mixed and centrifuged to precipitate microsomal proteins. […] A thermo BDS Hypersil C18 column (30×2.0 mm; 3 μm) was used for chromatography at 300 μL/minute with an aqueous reservoir of 90% water and 10% buffer and an organic reservoir of 90% acetonitrile with 10% buffer (each 25 mM ammonium formate buffer at pH of 3.5). Test compound samples were analyzed by orbitrap. The peak area response ratio to internal standard (PARR) of the compounds at 10, 20, 30, and 60 minutes was compared to the PARR at time 0 to determine the percent of test compound remaining at each timepoint. After the final time point, fluorimetry is used to confirm the addition of NADPH to the reaction mixture. Half-life was normalized of control using internal acceptance criteria.
The mass spectrometry measurements of compound were taken at 0, 10, 20, 30, and 60 minutes after incubation of the compound with human liver microsomes at […] in solution at 37° C.
Intrinsic clearance (CLint) was calculated based upon CLint=k/P, where k is the elimination rate constant and P is the protein concentration in the incubation.

GIP receptor = molecular target: T2, GIP receptor (UniProt P48546 22-466, limits assumed); assay: cell-based or functional assay
T2 sequence (looked up): T1 sequence (P48546 22-466)

[2] = Stability in human plasma; assay type: in vitro ADME
Protocol: Studies of the 2010 peptide were carried out in human plasma. All plasma was obtained from Bioreclamation and collected on sodium heparin. DMSO stocks were first prepared for the test compounds. Aliquots of the DMSO solutions were dosed into 1 mL of plasma, which had been pre-warmed to 37° C., at a final test compound concentration of 1 μM. The vials were kept in a benchtop Thermomixer® for the duration of the experiment. Aliquots (100 μL) were taken at each timepoint (0, 15, 30, 60, and 120 minutes) and added to 96-well plates which had been pre-filled with 300 μL of acetonitrile. Samples were stored at 4° C. until the end of the experiment. After the final timepoint was sampled, the plate was mixed and then centrifuged at 3,000 rpm for 10 minutes. Aliquots of the supernatant were removed, diluted 1:1 into distilled water, and analyzed by LC-MS/MS.
Below is a table of data describing the stability of compounds exposed to human plasma with aliquot of compound dissolved in DMSO solution at 37° C. The pH of the plasma solution was adjusted to 7.4 and single replicants of aliquot were taken at 0, 15, 30, 60 and 120 minutes. LC-MS/MS was used to determine the percent mass of compound remaining in solution (% remaining).

GLP-1 receptor = GLP-1 receptor (UniProt P43220 24-463, limits assumed); assay: cell-based or functional assay

Molecule	cAMP agonist: Max Response (GIP receptor)	cAMP agonist: Max Response (GLP-1 receptor)	cAMP agonist: Curve Bottom (GIP receptor)	cAMP agonist: Curve Top (GIP receptor)	cAMP agonist: Curve Bottom (GLP-1 receptor)	cAMP agonist: Curve Top (GLP-1 receptor)	further results
CC[C@H](C)[C@H](NC(=O)[C@H](Cc1ccccc1)NC(=O)[C@H](CCC(=O)O)NC(=O)[C@H](CCCCN)NC(=O)[C@H](C)NC(=O)[C@H](C)NC(=O)[C@H](CCC(N)=O)NC(=O)CNC(=O)[C@H](CCC(=O)O)NC(=O)[C@H](CC(C)C)NC(=O)[C@H](Cc1ccc(O)cc1)NC(=O)[C@H](CO)NC(=O)[C@H](CO)NC(=O)[C@@H](NC(=O)[C@H](CC(=O)O)NC(=O)[C@H](CO)NC(=O)[C@@H](NC(=O)[C@H](Cc1ccccc1)NC(=O)[C@@H](NC(=O)CNC(=O)[C@H](CCC(=O)O)NC(=O)[C@H](C)NC(=O)[C@@H](N)Cc1c[nH]cn1)[C@@H](C)O)[C@@H](C)O)C(C)C)C(=O)N[C@@H](C)C(=O)N[C@@H](Cc1c[nH]c2ccccc12)C(=O)N[C@@H](CC(C)C)C(=O)N[C@H](C(=O)N[C@@H](CCCCN)C(=O)NCC(=O)N[C@@H](CCCNC(=N)N)C(N)=O)C(C)C [GLP1]							Emax (GIP receptor (GIPR)): 2.66%
C[C@]12CC[C@H]3[C@@H](CCC4=CC(=O)CC[C@@]43C)[C@@H]1CC[C@@H]2O [Testosterone, testosterone]							% of mass remaining in solution ([1]; 0 mins.): 100%; % of mass remaining in solution ([1]; 60 mins.): 4.8%; remaining at 10 min, 1 μM ([1]; human, microsomes): 53%; remaining at 0.5 h, 1 μM ([1]; human, microsomes): 13%
wild-type GLP-1 (from UniProt P01275 92-128) (ligand)	2.66%						
CC[C@H](C)[C@H](NC(=O)[C@H](CO)NC(=O)[C@H](Cc1ccc(O)cc1)NC(=O)[C@H](CC(=O)O)NC(=O)[C@H](CO)NC(=O)[C@@H](NC(=O)[C@H](Cc1ccccc1)NC(=O)[C@@H](NC(=O)CNC(=O)[C@H](CCC(=O)O)NC(=O)C(C)(C)NC(=O)[C@@H](N)Cc1ccc(O)cc1)[C@@H](C)O)[C@@H](C)O)C(=O)N[C@@H](Cc1ccc(O)cc1)C(=O)N[C@@H](CC(C)C)C(=O)N[C@@H](CC(=O)O)C(=O)N[C@@H](CCCCN)C(=O)N[C@@H](CCC(N)=O)C(=O)N[C@@H](C)C(=O)N[C@@H](C)C(=O)NC(C)(C)C(=O)N[C@@H](CCC(=O)O)C(=O)N[C@@H](Cc1ccccc1)C(=O)N[C@H](C(=O)N[C@@H](CC(N)=O)C(=O)N[C@@H](Cc1c[nH]c2ccccc12)C(=O)N[C@@H](CC(C)C)C(=O)N[C@@H](CC(C)C)C(=O)N[C@@H](C)C(=O)NCC(N)=O)C(C)C [compound 2000, YBEGT FTSDY SIYLD KQAAB EFVNW LLAG]							% of mass remaining in solution ([1]; 0 mins.): 100%; half-life ([1]; human, microsomes): 58 min; microsomal CLint ([1]; human, microsomes): 24 µL/min/mg; remaining at 10 min, 1 μM ([1]; human, microsomes): 95%; remaining at 20 min, 1 μM ([1]; human, microsomes): 78%; remaining at 0.5 h, 1 μM ([1]; human, microsomes): 72%; remaining at 1 h, 1 μM ([1]; human, microsomes): 50%; % of mass remaining in solution ([2]; 0 mins., 1 μM, 37° C., pH 7.4): 100%; remaining at 0.25 h, 1 μM ([2]; plasma (sodium heparin), 15 mins., 1 μM, 37° C., pH 7.4, read-out: % of mass remaining in solution): 101%; remaining at 0.5 h, 1 μM ([2]; plasma (sodium heparin), 30 mins., 1 μM, 37° C., pH 7.4, read-out: % of mass remaining in solution): 99%; remaining at 1 h, 1 μM ([2]; plasma (sodium heparin), 60 mins., 1 μM, 37° C., pH 7.4, read-out: % of mass remaining in solution): 95%; remaining at 2 h, 1 μM ([2]; plasma (sodium heparin), 120 mins., 1 μM, 37° C., pH 7.4, read-out: % of mass remaining in solution): 98%; half-life ([2]; read-out: serum-half lives): > 120 min
B1	99.1%	2.68%	-0.8%	99.1%			cAMP agonist EC50 (RC50 (uM)) (GLP-1 receptor): > 1 µM
B2	99.2%	95.7%	-2.6%	96.3%	1.3%	91.1%	
Y[Aib]EGTFTSDYSIYLD[APC]QA[ACPC][Aib]EF[ACPC]NW[ACPC]LAG [2008]	82.2%	84.5%	-0.6%	82.8%	0.9%	84.4%	
Y[Aib]EGTFTSDYSIYLDK[ACPC]AA[Aib][ACPC]FV[APC]WLL[ACPC]G [2010]	96.9%	82.1%	-0.3%	85.5%	0.4%	82.4%	
B3	16.5%	36.7%					cAMP agonist EC50 (RC50 (uM)) (GLP-1 receptor): > 1 µM; cAMP agonist EC50 (RC50 (uM)) (GIP receptor): > 1 µM
